Earlier results as cited in article PMC8223436.

Molecular target: HER2 domain IV (Homo sapiens) (UniProt P04626)

In the case of Trastuzumab, the Kd is listed as 0.56 nM.
